Reference: article PMC8688574 (The Journal of Biological Chemistry, 2021)
One block for each molecule: values may come before it.

Experiments:
[1] = molecular target: ATL1 N417ins catalytic core C375A K400C, labelled on the middle domain with AlexaFluor-488 or AlexaFluor-647; test: intermolecular FRET (middle domain FRET); conditions: equilibrated for 1 h before measurement, read off a plot
[2] = molecular target: T1, catalytic core of human ATL1 WT / N417ins (Homo sapiens, UniProt Q8WXF7); test: SEC-MALS, nucleotide-dependent dimerization; type: binding; conditions: 2 mM GppNHp; 4 mM MgCl2, pH 7.5; 50 μM protein
T1 construct: catalytic core (G + middle domains), WT residues 1-449 (N417ins 1-450), C-terminal His10 tag kept, E. coli BL21(DE3)
T1 sequence (Q8WXF7 with tags, fused parts or gaps INS416N): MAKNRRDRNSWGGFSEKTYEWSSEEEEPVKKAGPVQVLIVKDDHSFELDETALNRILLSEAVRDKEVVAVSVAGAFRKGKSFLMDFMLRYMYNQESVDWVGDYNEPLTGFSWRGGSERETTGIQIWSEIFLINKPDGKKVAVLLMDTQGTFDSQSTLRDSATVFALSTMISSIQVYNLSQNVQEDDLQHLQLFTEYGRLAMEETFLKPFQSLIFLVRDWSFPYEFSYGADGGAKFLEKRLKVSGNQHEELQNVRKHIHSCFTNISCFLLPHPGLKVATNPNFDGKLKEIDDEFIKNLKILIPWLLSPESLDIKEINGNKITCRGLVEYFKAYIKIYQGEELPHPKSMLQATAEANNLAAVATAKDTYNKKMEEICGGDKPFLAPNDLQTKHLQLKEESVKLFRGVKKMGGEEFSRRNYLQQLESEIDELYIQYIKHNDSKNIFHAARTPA

[3] = molecular target: T2, catalytic core of human ATL1 WT / N417ins (Homo sapiens, UniProt Q8WXF7); test: SEC-MALS, nucleotide-dependent dimerization; type: binding; conditions: 2 mM GppNHp; 4 mM MgCl2, pH 7.5; 50 μM protein; remark: listed apart in the source
T2 construct: catalytic core (G + middle domains), WT residues 1-449 (N417ins 1-450), C-terminal His10 tag kept, E. coli BL21(DE3)
T2 sequence (Q8WXF7 1-449): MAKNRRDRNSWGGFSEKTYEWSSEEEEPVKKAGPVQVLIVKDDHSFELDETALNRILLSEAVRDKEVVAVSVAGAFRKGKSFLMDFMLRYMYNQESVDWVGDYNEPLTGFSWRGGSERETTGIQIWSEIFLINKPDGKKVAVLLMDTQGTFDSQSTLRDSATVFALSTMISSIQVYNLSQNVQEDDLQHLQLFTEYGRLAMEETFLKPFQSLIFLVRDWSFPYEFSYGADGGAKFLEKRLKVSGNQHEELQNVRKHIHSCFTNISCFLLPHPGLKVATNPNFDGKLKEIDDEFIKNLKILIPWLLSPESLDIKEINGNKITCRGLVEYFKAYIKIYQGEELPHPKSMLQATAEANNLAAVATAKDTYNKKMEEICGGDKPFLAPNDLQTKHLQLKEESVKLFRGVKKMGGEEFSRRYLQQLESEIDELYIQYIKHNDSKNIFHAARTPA

[4] = molecular target: ATL1 N417ins catalytic core, G domain FRET construct; test: intermolecular FRET (G domain FRET); conditions: equilibrated for 1 h before measurement, read off a plot
[5] = molecular target: T2, catalytic core of human ATL1 WT / N417ins; test: limited proteolysis (proteinase K) protection; type: binding; conditions: 2 mM GDP; MgCl2, pH 7.5; on ice
[6] = molecular target: the molecule itself; test: SEC-MALS; 50 μM protein loaded, preincubated with 2 mM GppNHp; Superdex Increase 200 10/300 GL; 25 mM Tris-HCl pH 7.5, 100 mM NaCl, 2 mM EGTA, 4 mM MgCl2
[7] = apo (no nucleotide), parent: est. 0.0083

response ([1]; GDP, parent: est. 0.0098): 0.011
response ([1]; GDP•AlF4-, parent: est. 0.061): 0.066
response [1, 7]: 0.009
Molecule: ATL1 WT catalytic core, middle domain FRET construct N417ins

Molecule: Nc1nc2c(ncn2[C@@H]2O[C@H](COP(=O)(O)OP(=O)(O)NP(=O)(O)O)[C@@H](O)[C@H]2O)c(=O)[nH]1 [GppNHp]
SEC-MALS, nucleotide-dependent dimerization [2]: Only a minor fraction of the mutant protein eluted as a monomer upon incubation with GppNHp
SEC-MALS, nucleotide-dependent dimerization [3]: dimerized in the presence of GppNHp and GDP•AlF4^−

response ([4]; GDP, parent: est. 0.014): 0.011
response ([4]; GDP•AlF4-, parent: est. 0.076): 0.078
response [4, 7]: 0.009
Molecule: ATL1 WT catalytic core, G domain FRET construct N417ins

Molecule: Nc1nc2c(ncn2[C@@H]2O[C@H](COP(=O)(O)OP(=O)(O)O)[C@@H](O)[C@H]2O)c(=O)[nH]1 [GDP]
limited proteolysis (proteinase K) protection [5]: when bound to GDP, the WT protein is largely protected from degradation

B1: human ATL1 N417ins catalytic core (residues 1–450) (domain or fragment, UniProt Q8WXF7-1 1-450, looked up)
chain: MAKNRRDRNSWGGFSEKTYEWSSEEEEPVKKAGPVQVLIVKDDHSFELDETALNRILLSEAVRDKEVVAVSVAGAFRKGKSFLMDFMLRYMYNQESVDWVGDYNEPLTGFSWRGGSERETTGIQIWSEIFLINKPDGKKVAVLLMDTQGTFDSQSTLRDSATVFALSTMISSIQVYNLSQNVQEDDLQHLQLFTEYGRLAMEETFLKPFQSLIFLVRDWSFPYEFSYGADGGAKFLEKRLKVSGNQHEELQNVRKHIHSCFTNISCFLLPHPGLKVATNPNFDGKLKEIDDEFIKNLKILIPWLLSPESLDIKEINGNKITCRGLVEYFKAYIKIYQGEELPHPKSMLQATAEANNLAAVATAKDTYNKKMEEICGGDKPFLAPNDLQTKHLQLKEESVKLFRGVKKMGGEEFSRRNYLQQLESEIDELYIQYIKHNDSKNIFHAARTPAT
notes: atlastin-1 (ATL1/SPG3A), human, catalytic core with the patient's in-frame insertion of an asparagine between R416 and Y417; residues 1-450. numbers count on: the mutant protein with the extra residue (1-449 of the wild type plus N417); pET21 vector; construct for enzyme assays, SEC-MALS and tethering; Theoretical monomer mass 52.9 kDa; also called N417ins mutant protein; …
stoichiometry N [6]: 2

B2: human ATL1 WT catalytic core (residues 1–449) (domain or fragment, UniProt Q8WXF7-1 1-449, looked up)
chain: T2 sequence (Q8WXF7 1-449)
notes: atlastin-1 (ATL1/SPG3A), human, catalytic core of G and middle domains, residues 1-449; pET21 vector; Monomer without nucleotide or with GDP, dimer with GppNHp or GDP•AlF4-; Theoretical monomer mass 52.8 kDa; also called atlastin-1; SPG3A; source: E. coli BL21(DE3), purified (Ni-NTA, desalting, S200 gel filtration); not shown: His10, C-terminal, kept
stoichiometry N [6]: 2
